In series [1] the target is KSHV protease (Kaposi's sarcoma-associated herpesvirus) (UniProt Q2HRB6). The note with it: cited from earlier work.
Series [2] concerns the molecule itself. The series can be described thus: fluorescence-based substrate cleavage kinetics assay.

As a reminder, the Kd is a measure of binding affinity in units of concentration. As for KSHV protease (from UniProt Q2HRB6), the equilibrium dissociation constant (Kd) in series [1] was 1700 nM.

B1: HCMV protease (HCMV Pr) (protein)
chain: MTMDEQQSQAVAPVYVGGFLARYDQSPDEAELLLPRDVVEHWLHAQGQGQPSLSVALPLNINHDDTAVVGHVAAMQSVRDGLFCLGCVTSPRFLEIVRRASEKSELVSRGPVSPLQPDKVVEFLSGSYAGLSLSSRRCDDVEAATSLSGSETTPFKHVALCSVGRRRGTLAVYGRDPEWVTQRFPDLTAADRDGLRAQWQRCGSTAVDASGDPFRSDSYGLLGNSVDALYIRERLPKLRYDKQLVGVTERESYVKA
On to B1, for which the equilibrium dissociation constant (Kd) in series [2] was determined as 1300 nM.
